Laboratory results published in article PMC9253517 (The Journal of Experimental Medicine, 2022).

Molecular target: SARS-CoV-2 Wuhan-Hu-1 NTD (SARS-CoV-2, UniProt P0DTC2)
Assay: cell-based or functional assay

B1: JN011 (antibody, V domains shown)
VH: VQLVESGGGVVQPGRSLRLSCAASGFTFSSYAMHWVRQAPGKGLEWVAVISYDGSNKYYADSVKGRFTISRDNSKNTLYLQMNSLRAEDTAVYYCAGSLGEEYYYYYYGMDVWGQGTTVTVSS
VL: NFMLTQPHSVSESPGKTVTISCTGSSGSIASNYVQWYQQRPGSAPTTVIYEDNQRPSGVPDRFSGSIDSSSNSASLTISGLKTEDEADYYCQSYDSSNWVFGGGTKLTVL
B1 was tested, and the “neutralisation IC50, WT (293TAce2)” value was over 1 µg/mL.

B2: JN019 (antibody, V domains shown)
VH: VQLVESGGGVVQPGRSLRLSCAASGFTFSNYGMHWVRQAPGKGLEWVAFISYDANHKYSTNSVKGRFTISRDNSKNTLYLQMNSLRTEDTAVYYCASMDGLHPGTAQFYGMDVWGQGTTVTVSS
VL: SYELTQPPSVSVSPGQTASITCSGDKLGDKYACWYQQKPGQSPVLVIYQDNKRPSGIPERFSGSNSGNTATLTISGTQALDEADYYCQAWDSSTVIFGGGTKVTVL
B2 was tested, and the “neutralisation IC50, WT (293TAce2)” value was 0.0345 µg/mL.

B3: JN112 (antibody, V domains shown)
VH: QVQLQESGPGLVKPSQTLSLTCTVSGGSISSGDYYWSWIRQPPGKGLEWIGYIYYSGSTYYNPSLKSRVTISVDTSKNQFSLKLSSVTAADTAVYYCAREGTIFGEPFDYWGQGTLVT
VL: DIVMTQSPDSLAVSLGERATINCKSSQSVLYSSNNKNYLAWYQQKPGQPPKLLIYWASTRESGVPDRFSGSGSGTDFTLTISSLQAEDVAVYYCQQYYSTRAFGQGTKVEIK
With B3 the “neutralisation IC50, WT (293TAce2)” value was over 1 µg/mL.

B4: JN024 (antibody, V domains shown)
VH: QVQLQESGPKLMKPSQTLSLTCAVSGASIRSGGYYWSWIRQHPGKGLEWIGYIYYSGSTYYNPSLKSRATISVDTSKNQFSLKLTSVTAADTAVYYCARAGRWFGELFRGGGYFDYWGLGTLVTVSS
VL: AIRMTQSPSSLSASVGDRVTITCQASQDIGIFLNWYQQKSGEAPKLLIYDASNLETGVPSRFSGSGSGTDFIFIIRNLQPEDSATYYCQQHNHLPRVTFGPGTKVDIK
For B4, the “neutralisation IC50, WT (293TAce2)” value was over 1 µg/mL.

B5: JN231 (antibody, V domains shown)
VH: VQLVESGGGVVQPGRSLRLSCAASGFTFSSYGMHWVRQAPGKGLEWVAVISYDGSNKYYADSVKGRFTISRDNSKNTLYLQMNSLRAEDTAVYYCAKDSRYYDFWSGYLGPDEYYYYYYMDVWGKGTTVTVSS
VL: not shown
In the case of B5, the “neutralisation IC50, WT (293TAce2)” value is reported as over 1 µg/mL.

B6: JN220 (antibody, V domains shown)
VH: VQLVESGGGVVQPGRSLRLSCAASGFTFSSYTMHWVRQAPGKGLEWVAVISYDGSNKYYADSVKGRFTISRDNSKNTLYLQMNSLRAEDTAVYYCAISSGWYSMSGAFDIWGQGTMVTVSS
VL: QSALTQPRSVSGSPGQSVTISCTGTSSDVGGYNYVSWYQQHPGKAPKLMIYDVSKRPSGVPDRFSGSKSGNTASLTISGLQAEDEADYYCCSYAGSYRVFGTGTKVTVL
For B6, the “neutralisation IC50, WT (293TAce2)” value was over 1 µg/mL.

B7: JN006 (antibody, V domains shown)
VH: VQLVESGGGVVQPGRSLRLSCAASGFTFSNYVMHWVRQAPGKGLEWVAVMSSDGSIKYYADSVKGRFTVSRDNSKNTLYLQMNSLRPEDTAVYYCARGGRYSGSHTGDAFDIWGQGTMVTVSS
VL: SYELTQPPSVSVSPGQTARITCSGDALPNRYSYWYQQKPGQAPVLVIFKDSERPSGIPERFSGSSSGTTVTLTISGVQAEDEADYYCQSADSSGTWVFGGGTKLTVL
In the case of B7, the “neutralisation IC50, WT (293TAce2)” value is reported as over 1 µg/mL.

B8: JN111 (antibody, V domains shown)
VH: QVQLQESGPGLVRPSETLSLTCTVSGASITSYFWTWIRQAPGKGLEWIGYIYYSGSTNYNPSLKSRGTISVDTSKNQFSLKLSSVTAADTAVYYCARGMSDVVIVPAALSFGYDDAYYYYYYMDVWGKGTTVTVSS
VL: QSALTQPASVSGSLGQSITISCTGTSSDVGSYNLVSWYQQHPGKVPKLMIYEANKRASGVSDRFSGSKTDNTASLTISGLQAEDEADYYCCSYAGSRTHVIFGGGTKLTV
B8 was tested, and the “neutralisation IC50, WT (293TAce2)” value was over 1 µg/mL.

B9: JN021 (antibody, V domains shown)
VH: QLQLQESGPGLVKPSETLSLTCTVSGGSIRSRGYYWGWIRQPPGKGLEWIGSIDYSGSTYYNPSLKSRVTISVDTSKNQFSLKLNSVTAADTAVFYCASSADTYYDILTGYYKGWYIDYWGQGTLVTVSS
VL: LTQPRSVSGSPGQSVTISCAGTSSDVGGYNYVSWYQQHPGKAPKLMIFDVTKRPSGVPDRFSGSKSGNTASLTISGLQAEDDADYYCCSYAGSYTYWVFGGGTKLTVL
In the case of B9, the “neutralisation IC50, WT (293TAce2)” value is reported as over 1 µg/mL.

B10: JN020 (antibody, V domains shown)
VH: EVQLVESGGDLVRRGESLRLSCAASGFTFSNHWMTWVRQAPGRGLEWVANIEGDGSDKYYVDSVKGRFTISRDNARNLLFLYMNALRGDDTAIYYCARHSATYHGLDQWGQGTLVTVSS
VL: LTQPRSVSGSPGQSVTISCTGTSSDVGGYIFVSWYQRHPGKAPKLILFHVDKRPSGVPDRFSGSRSGNTASLTISGLQTEDEADYDCYSFAGTIWMFGGGTRLTVL
With B10 the “neutralisation IC50, WT (293TAce2)” value was over 1 µg/mL.
